{"source": "patent US20220143148A1", "about": "“COMPOSITIONS AND METHODS FOR MODULATING CGRP SIGNALING TO REGULATE INTESTINAL INNATE LYMPHOID CELLS” (The Broad Institute, Inc., priority 2019, published 2022)", "molecules": {"B1": {"name": "OVA (protein, UniProt P01012 2-386, looked up)", "Ovalbumin": "GSIGAASMEFCFDVFKELKVHHANENIFYCPIAIMSALAMVYLGAKDSTRTQINKVVRFDKLPGFGDSIEAQCGTSVNVHSSLRDILNQITKPNDVYSFSLASRLYAEERYPILPEYLQCVKELYRGGLEPINFQTAADQARELINSWVESQTNGIIRNVLQPSSVDSQTAMVLVNAIVFKGLWEKAFKDEDTQAMPFRVTEQESKPVQMMYQIGLFRVASMASEKMKILELPFASGTMSMLVLLPDEVSGLEQLESIINFEKLTEWTSSNVMEERKIKVYLPRMKMEEKYNLTSVLMAMGITDVFSSSANLSGISSAESLKISQAVHAAHAEINEAGREVVGSAEAGVDAASVSEEFRADHPFLFCIKHIATNAVLFFGRCVSP"}}, "system": "small intestinal immune cells", "assay": "Droplet-based scRNA-seq of small intestinal immune cells (LP and PP), OVA vs PBS, clustering and differential expression", "assay_type": "in vivo, mouse", "details": "PP", "source_text": "To comprehensively characterize small intestinal immune cells, Applicants generated scRNA-Seq profiles for 58,067 immune cells collected from lamina propria (LP) and Peyer's patch (PP) regions at steady state and after induction of a type 2 inflammatory reaction to ovalbumin (OVA) (Brandt et al., 2003) (FIGS. 1A and 8A). To ensure sufficient representation of rare cells, Applicants combined a normalization strategy—removing by flow sorting either a portion of IgD+ naïve B cells, which are the most abundant cell type in PPs, or all CD19+ and CD3+ T cells (FIG. 8B, Methods)—with profiling of a sufficiently large number of cells number (P>0.99 to recover at least 15 cells from each cluster, Methods) by massively parallel scRNA-seq (Haber et al., 2017) (Methods). Applicants obtained 36,797 and 21,270 high quality cells passing initial filtering (Methods) from PP and LP regions, respectively.\nOverall, Applicants annotated 27 cell subsets across the two compartments, spanning T cells, B cells, ILCs, dendritic cells (DCs), myeloid cells and stromal cells, in frequencies ranging from 0.07% to 14%. Briefly, Applicants first partitioned the cells from the PP regions by unsupervised clustering (Methods) into 46 clusters, retained the 97% of cells that were robustly assigned cell identities in each cluster (Methods), assigned the cells from the LP regions to the 46 clusters using a classifier (Methods), and visualized the data with scvis (Ding et al., 2018), a deep generative model-based method (FIGS. 1B and 8C, Methods). Next, Applicants identified genes that were differentially expressed between the cells in each cluster and the remaining cells (Table 1, Methods), as well as between pairs of clusters (Table 2), to elucidate identities of similar cell types/states. Applicants excluded from downstream analysis clusters mostly consisting of contaminants from epithelium, likely doublets, or cells with a small number of Unique Molecular Identifiers (UMIs) (FIGS. 1C and 8D), or lacking distinct markers (Methods). Altogether, Applicants retained 27 clusters spanning 85% of the cells and each associated with distinct marker genes (FIG. 8E, Methods).\nTo induce allergic reaction to OVA, 6 to 7 weeks old mice were sensitized twice, two weeks apart, with 50 μg of OVA plus 1 mg of aluminum potassium sulfate adjuvant via intraperitoneal injection. Two weeks later, mice were orally administered with 50 mg of OVA on every other day for a total of five times. 1 μg of α-CGRP peptide was administered simultaneously when indicated. Mice were deprived of food for 3-4 hours in cages with wood chip bedding for limiting antigen degradation in the stomach before each intragastric challenge.\nIsolation of cells from Peyer's patches (PPs). Peyer's patches (PPs) were carefully dissected from the small intestine under a stereo microscope using a fine scissor, pierced once with a fine forcep. Tissues were digested in freshly made digestion buffer (RPMI-1640 containing 100 μg/ml Liberase™ and 50 μg/ml DNase I at 37° C. on a roto-mixer. After 15 min, tissues were very gently mixed using a 1 ml pipette. The supernatant was collected and added to ice-cold MACS buffer (pH 7.4; PBS plus 2% FCS and 2 mM EDTA). Pre-warmed (37° C.) fresh digestion buffer was added to the remaining tissues. After rotation at 37° C. for 15 min, the mixture was vigorously mixed using a 1 ml pipette for 1 min. Supernatants from the two steps were combined and passed through 70 μm filters and stained for FACS (below).\nIsolation of cells from the lamina propria (LP). The small intestines were opened longitudinally and washed in ice-cold PBS. For scRNA-seq, roughly 0.5 cm of fragments from each of the distal, middle and proximal regions without visible PPs were collected. Epithelial cells were dissociated by tissue rotation in pre-warmed (37° C.) PBS containing 10 mM EDTA at 37° C. for 15 min, followed by additional incubation on ice for 15 min. Tissues were then shaken vigorously. […]"}
{"molecule": "B1", "values": [{"measurement": "Snrnp70 LN (average fold change)", "setting": "cluster ID 6, OVA vs PBS", "value": 0.220}, {"measurement": "Tmem50a LN (average fold change)", "setting": "cluster ID 6, OVA vs PBS", "value": 0.153}, {"measurement": "Tmem59 LN (average fold change)", "setting": "cluster ID 6, OVA vs PBS", "value": 0.179}, {"measurement": "Tmem86a LN (average fold change)", "setting": "cluster ID 6, OVA vs PBS", "value": 0.323}, {"measurement": "Tsix LN (average fold change)", "setting": "cluster ID 6, OVA vs PBS", "value": "−0.418"}, {"measurement": "Txndc5 LN (average fold change)", "setting": "cluster ID 6, OVA vs PBS", "value": 0.226}, {"measurement": "Ddit4 percentage of expressing cells in OVA-treated group", "setting": "cluster ID 7", "value": 0.359}, {"measurement": "Dusp2 percentage of expressing cells in OVA-treated group", "setting": "cluster ID 7", "value": 0.465}, {"measurement": "Fkbp5 percentage of expressing cells in OVA-treated group", "setting": "cluster ID 7", "value": 0.167}, {"measurement": "Gabarapl2 percentage of expressing cells in OVA-treated group", "setting": "cluster ID 7", "value": 0.643}, {"measurement": "Hsp90ab1 percentage of expressing cells in OVA-treated group", "setting": "cluster ID 7", "value": 0.834}, {"measurement": "Il7r percentage of expressing cells in OVA-treated group", "setting": "cluster ID 7", "value": 0.191}, {"measurement": "Lmo4 percentage of expressing cells in OVA-treated group", "setting": "cluster ID 7", "value": 0.204}, {"measurement": "Matk percentage of expressing cells in OVA-treated group", "setting": "cluster ID 7", "value": 0.284}, {"measurement": "Ptpn22 percentage of expressing cells in OVA-treated group", "setting": "cluster ID 7", "value": 0.53}, {"measurement": "Svbp percentage of expressing cells in OVA-treated group", "setting": "cluster ID 7", "value": 0.246}, {"measurement": "Tsc22d3 percentage of expressing cells in OVA-treated group", "setting": "cluster ID 7", "value": 0.565}, {"measurement": "Txnip percentage of expressing cells in OVA-treated group", "setting": "cluster ID 7", "value": 0.415}, {"measurement": "Zfp36l2 percentage of expressing cells in OVA-treated group", "setting": "cluster ID 7", "value": 0.757}, {"measurement": "Ddit4 LN (average fold change)", "setting": "cluster ID 7, OVA vs PBS", "value": 0.463}, {"measurement": "Dusp2 LN (average fold change)", "setting": "cluster ID 7, OVA vs PBS", "value": 0.542}, {"measurement": "Fkbp5 LN (average fold change)", "setting": "cluster ID 7, OVA vs PBS", "value": 0.540}, {"measurement": "Gabarapl2 LN (average fold change)", "setting": "cluster ID 7, OVA vs PBS", "value": 0.253}, {"measurement": "Hsp90ab1 LN (average fold change)", "setting": "cluster ID 7, OVA vs PBS", "value": "−0.450"}, {"measurement": "Il7r LN (average fold change)", "setting": "cluster ID 7, OVA vs PBS", "value": 0.526}, {"measurement": "Lmo4 LN (average fold change)", "setting": "cluster ID 7, OVA vs PBS", "value": 0.711}, {"measurement": "Matk LN (average fold change)", "setting": "cluster ID 7, OVA vs PBS", "value": 0.513}, {"measurement": "Ptpn22 LN (average fold change)", "setting": "cluster ID 7, OVA vs PBS", "value": 0.340}, {"measurement": "Svbp LN (average fold change)", "setting": "cluster ID 7, OVA vs PBS", "value": 0.261}, {"measurement": "Tsc22d3 LN (average fold change)", "setting": "cluster ID 7, OVA vs PBS", "value": 1.003}, {"measurement": "Txnip LN (average fold change)", "setting": "cluster ID 7, OVA vs PBS", "value": 0.551}, {"measurement": "Zfp36l2 LN (average fold change)", "setting": "cluster ID 7, OVA vs PBS", "value": 1.239}, {"measurement": "AW112010 percentage of expressing cells in OVA-treated group", "setting": "cluster ID 8", "value": 0.995}, {"measurement": "AY036118 percentage of expressing cells in OVA-treated group", "setting": "cluster ID 8", "value": 0.431}, {"measurement": "Actr3 percentage of expressing cells in OVA-treated group", "setting": "cluster ID 8", "value": 0.771}, {"measurement": "Alyref percentage of expressing cells in OVA-treated group", "setting": "cluster ID 8", "value": 0.137}, {"measurement": "Amd1 percentage of expressing cells in OVA-treated group", "setting": "cluster ID 8", "value": 0.265}, {"measurement": "Arf4 percentage of expressing cells in OVA-treated group", "setting": "cluster ID 8", "value": 0.478}, {"measurement": "Arfrp1 percentage of expressing cells in OVA-treated group", "setting": "cluster ID 8", "value": 0.21}, {"measurement": "Arl6ip1 percentage of expressing cells in OVA-treated group", "setting": "cluster ID 8", "value": 0.61}, {"measurement": "Arl6ip5 percentage of expressing cells in OVA-treated group", "setting": "cluster ID 8", "value": 0.618}, {"measurement": "Arpc5l percentage of expressing cells in OVA-treated group", "setting": "cluster ID 8", "value": 0.381}, {"measurement": "Arrb2 percentage of expressing cells in OVA-treated group", "setting": "cluster ID 8", "value": 0.32}, {"measurement": "Ash1l percentage of expressing cells in OVA-treated group", "setting": "cluster ID 8", "value": 0.235}, {"measurement": "B2m percentage of expressing cells in OVA-treated group", "setting": "cluster ID 8", "value": 0.999}, {"measurement": "Bcl2a1b percentage of expressing cells in OVA-treated group", "setting": "cluster ID 8", "value": 0.151}, {"measurement": "Bcl2l11 percentage of expressing cells in OVA-treated group", "setting": "cluster ID 8", "value": 0.383}, {"measurement": "Bcl2 percentage of expressing cells in OVA-treated group", "setting": "cluster ID 8", "value": 0.839}, {"measurement": "Bhlhe40 percentage of expressing cells in OVA-treated group", "setting": "cluster ID 8", "value": 0.571}, {"measurement": "Cap1 percentage of expressing cells in OVA-treated group", "setting": "cluster ID 8", "value": 0.695}, {"measurement": "Ccr2 percentage of expressing cells in OVA-treated group", "setting": "cluster ID 8", "value": 0.536}, {"measurement": "Cd47 percentage of expressing cells in OVA-treated group", "setting": "cluster ID 8", "value": 0.833}, {"measurement": "Cd69 percentage of expressing cells in OVA-treated group", "setting": "cluster ID 8", "value": 0.306}, {"measurement": "Cd74 percentage of expressing cells in OVA-treated group", "setting": "cluster ID 8", "value": 0.448}, {"measurement": "Cdk2ap1 percentage of expressing cells in OVA-treated group", "setting": "cluster ID 8", "value": 0.132}, {"measurement": "Cdkn1a percentage of expressing cells in OVA-treated group", "setting": "cluster ID 8", "value": 0.084}, {"measurement": "Cdv3 percentage of expressing cells in OVA-treated group", "setting": "cluster ID 8", "value": 0.255}, {"measurement": "Cks2 percentage of expressing cells in OVA-treated group", "setting": "cluster ID 8", "value": 0.108}, {"measurement": "Clec2d percentage of expressing cells in OVA-treated group", "setting": "cluster ID 8", "value": 0.289}, {"measurement": "Coq10b percentage of expressing cells in OVA-treated group", "setting": "cluster ID 8", "value": 0.305}, {"measurement": "Crem percentage of expressing cells in OVA-treated group", "setting": "cluster ID 8", "value": 0.371}, {"measurement": "Csrp1 percentage of expressing cells in OVA-treated group", "setting": "cluster ID 8", "value": 0.129}, {"measurement": "Ctla2a percentage of expressing cells in OVA-treated group", "setting": "cluster ID 8", "value": 0.74}, {"measurement": "Cxcr4 percentage of expressing cells in OVA-treated group", "setting": "cluster ID 8", "value": 0.577}, {"measurement": "Ddx21 percentage of expressing cells in OVA-treated group", "setting": "cluster ID 8", "value": 0.248}, {"measurement": "Defa24 percentage of expressing cells in OVA-treated group", "setting": "cluster ID 8", "value": 0.044}, {"measurement": "Dgat1 percentage of expressing cells in OVA-treated group", "setting": "cluster ID 8", "value": 0.175}, {"measurement": "Dusp1 percentage of expressing cells in OVA-treated group", "setting": "cluster ID 8", "value": 0.614}, {"measurement": "Eef2 percentage of expressing cells in OVA-treated group", "setting": "cluster ID 8", "value": 0.957}, {"measurement": "Egr1 percentage of expressing cells in OVA-treated group", "setting": "cluster ID 8", "value": 0.156}, {"measurement": "Eif4a2 percentage of expressing cells in OVA-treated group", "setting": "cluster ID 8", "value": 0.622}, {"measurement": "Emb percentage of expressing cells in OVA-treated group", "setting": "cluster ID 8", "value": 0.506}, {"measurement": "Fam105a percentage of expressing cells in OVA-treated group", "setting": "cluster ID 8", "value": 0.376}, {"measurement": "Fasl percentage of expressing cells in OVA-treated group", "setting": "cluster ID 8", "value": 0.598}, {"measurement": "Fcer1g percentage of expressing cells in OVA-treated group", "setting": "cluster ID 8", "value": 0.927}]}
